Source: the DeepSol protein solubility set

Test: soluble on expression in E. coli; label from the status in PepcDB or PDB records

Sequence	soluble on expression in E. coli
AFYYLSNFERALAWLAERYDDVLDAGEHAFVGAFGALPRASRALLVRMLMRKGPMFRASKLAYDEIGCPLAAAAPLVALGWIDPEPPLSLDALFALATKPELRDAFPDAPASGAVRKADWLDALRARHDGERPWAQWLPSIDDRVLRVTAAVDALCSRLRLMFFGNLHQDWSEFVLADLGLLQYETVAFAPSSRAFQRRDDVDAYLRLHACRELLEVWPADAPLAPLVEAAAAVDCGNAWLAMRRAKLTFSIGQACERRADWDGALAAYASSAWPGSRQRRVRVLERCERFDTALALADEAARAPENEAEAQQIARMLPRLRRRVGLPAGRAARAREIPRDSLELAHPGVPYPVEYVARDHLSRADAPVFYVENALINSLFGLLCWEPVFAAVPGAFFHPFQRGPADLHAPDFRARRAAQFDACLAQLDGTQYRDTIRRHYARKRGVQSPFVFWGALDETLLEHALACLPAEHLRLWFERLLDDVRGNRSGLPDLVRFWPAERRYELIEVKGPGDRLQDNQIRWLDYCVRHRMPVRVIDVRWSGDAQASSQDEGAL	not soluble
SGKQPVKLKAVVYALSPFQQKIMTGLWKDLPEKIHHKVSENWISATLLVTPVVGTYWYAQYFKEQEKLEHRF	soluble
GSHMAAQSGNDAAEVALYERLLQLRVLPGASDVHDVRFVFGDDSRCWIEVAMHGDHVIGNSHPALDPKSRATLEHVLTVQGDLAAFLVVARDMLLASL	soluble
MGSDKIHHHHHHMTPRPVSSVARLVEDNAQDFLRAVQAKLLTLAPQARGHFPTADDATHISIAEMVSALLEGTGEEGKVDDKTLEFFKEAALDARRFGLTPEMHSALGEAVRSELLSLCEDLPFENVLFAERAIAATTAVSVEAVREADEAHIPASYQAEIVEVEKRSRRFTVVRMQAETQLPYLPGQYLAATADFLPNTWRYLCPSIPTNEWGQVEFHIQSDADDIAGLLATTRLGDKWRLGPGRGDFGQSKISSGNDLLFIAHGTGLAPLRAYMFELMNQAAPPRLHFFVGADYPGELYELTGMWNFAAASPWLSVVPVSTHDKDAWWVQATEASQPPRGLHLHQTGSMAKIVTEAGAWADRDVLIAGPESWARDVRRAMIRRGTPAQQIEILGF	not soluble
MSLSNQLLLGMSEFGLSYIINFSEFNQHVLVPATTGSGKTTLLQLLVQHAVKFNFPVILIDGKGARDTLESMREIAKFYDKEVHAFTDDGDMRYNPVEHGNDISIRDKLVSLAETESVFYSGAAKALLQVTIQLLDEFKGAKVTLSGDTRTTETVERSLPFVQRFLLPRNVLHLFADAILPNNPKLFEIEVEKKIQKPKKKSVKEGSEILPDSDLDKEEKEEDSQIKNSKFRNISQLGIAQKETETIVLNPETLDLDSYYLLLKRNLRYLPTDKETGENIKQKLFERLFIRYEHKDSPFYLYATSEALQTNINMLLDSELGKLFDTKNAKNVLDVQEIVNQRKLVYVSFNGLIYKEYIRTLAQMLVGDVNYFASEMYRKNVKREVLVIFDEPASYLNETFIDMVNKGRGAGVYGIFTPQTMADIAKLGDKLMEQLVGNVNTLFIGKTNEKGEAEYWSETMGTYQDIDVTSVTEQEDGYSDVGKSDWSGDRGTKRNVDRFKISPNKIKELRTGEFIIYRTAENVNLPPQKVYVRNALEWLQKSNSEGHHHHHH	soluble
MNANVYQHFRKDEHPFIDTVGDWLEQVEMQYAPYLTDFLDPRQAYILETLIRQNSDLSFTFYGGYEQAERKRCLIYPAYYIPEETDFGVVLFEIIYPSKFATLSHGKILGTLMNVGVRREAFGDIISDGDKWQVFIAQEVAGFVVNQVDKIGKITVRLEERDYTQILIPKDGWQEERTTMSSLRLDSVISAVFNISRQRSKQLIESGKVKVNWTETTRPDFALDLLDIVSIRGFGRLQIQELEGKTKKEKFRVLLGVLRK	not soluble
MRFFNKYKLFLDCAYKHLNIVLLDFKTNTVVDQLTIPVQQNLTELAVYHLEKLLKKNKVRNNTVRQFYVTTGPGSFTGQRVGAIIAKTWCTVNPNCQLFALNSLRLQIPYGCGISKISAGNEKNYCGLFTETTSEIALLAKPDFVKLCKANTELPVYENFENIDSIEELFLNNIERFELVENPQNLELLYLKDPVN	soluble
METRTAENTAIFMCKCCNLFSPNQSELVTHVSEKHGEEGVNVDDVIIPLRPLNTPENPNPSKGGDEFLVMKRKRGRPKGSTKKPSTEEEVVENLVSPSEDGPLATEEGSRLAPSSLECSKCCRKFSNTRQLRKHICIIVLNLGEEDGDAGNESDLDLEKTYKEDDREKASKRPRAQKTEKVQKISGKEAGQLSGAKKPIISVVLTAHEAIPGATKIIPVEAGPPETGAPPPETTAADLVPRRGYQEYAIQQTPYEQPMKSSRLGPTQLKIFTCEYCNKVFKFKHSLQAHLRIHTNEKPYKCSQCSYASAIKANLNVHLRKHTGEKFACDYCSFTCLSKGHLKVHIERVHKKIKQHCRFCKKKYSDVKNLIKHIRDMHDPQDKKVKEALDELRLMTREGKRQLLYDCHICERKFKNELDRDRHMLVHGDKWPFACELCGHGATKYQALELHVRKHPFVYVCALCLKKFVSSIRLRSHIREVHGAAQETLVFTSSINQSFCLLEPGGDIQQEALGDQLQLAAEEFVCPEIDVRKEEACPGEAQPEVGLRELVVPGDAHAPPPGPLATPQSESSSLSPCKLETTVVSSDLNSLGVVSDDFLLKSDTSSAEPPAAAEATSDTQHRDSAQTQGEEVTLLLAKAKSAGPDPESSPGGRQKVGALPASESDSSTCLRANPTEASDLLPTVTDGGDLGVCQPDSCTPSSEHHPGSTAFMKVLDSLQKKQMNTSLCERIRKVYGDLECEYCGKLFWYQVHFDMHVRTHTREHLYYCSQCHYSSITKNCLKRHVIQKHSNILLKCPTDGCDYSTPDKYKLQAHLKVHTELDKRSYSCPVCEKSFSEDRLIKSHIKTNHPEVSMNTISEVLGRRVQLKGLIGKRAMKCPYCDFYFMKNGSDLQRHIWAHEGVKPFKCSLCEYATRSKSNLKAHMNRHSTEKTHLCDMCGKKFKSKGTLKSHKLLHTSDGKQFKCTVCDYTAAQKPQLLRHMEQHASFKPFRCAHCHYSCNISGSLKRHYNRKHPNEEYTNVGSGELAAEALIQQGGLKCPVCSFVYGTKWEFNRHLKNKHGLKVVEIDGDPKWEPAAETPEEPSTQYLYITEAEDVQGTQAAVAALQDLRYTSESGDRLDPTAVNILQQIIELGSETHDAAAVASVVAMAPGTVTVVKQVTDEEPSSNHTVMIQETLQQASVELAEQHHLVVSSDDVEGIETVTVYTQGGEASEFIVYVQEAVQPVEEQVGEQPAPEL	soluble
MGSDKIHHHHHHAGCEEEASLSARSVVEAGETEREKTELDKWILDTFTRPYGIEVEYRWDKNAVQNGSYIYPPEVANVKSVLNTIKTLWIDLYTAPELGGDKFLLGKNPLKIYMYGGRNVDGNGMELLDNLEATTNEMFLYNVNDFNPQDEDKVFILMRSVHHQFARHLMELFPYDRSKFLSISRNKYIESTKSIAWIFKGETQGRRGFILAGYPNKKGFFTFHSLLSPEKDFAEIISLKLTYGPKDLLQALDRAKTPYNAGSDKDLQKEYDEQALQAYKELVEKQAFVEDYFSKEIKISLNYLQLISMKQVKEFINKK	not soluble
MKAPELQIQQWFNSATDLTLADLRGKVIVIEAFQMLCPGCVMHGIPLAQKVRAAFPEDKVAVLGLHTVFEHHEAMTPISLKAFLHEYRIKFPVGVDQPGDGAMPRTMAAYQMRGTPSLLLIDKAGDLRAHHFGDVSELLLGAEIATLLGEAAPSVQKQAGTPQGDANCDNDGCTV	not soluble
MAKLDETLTMLKALTDAKGVPGNEREARDVMKTYIAPYADEVTTDGLGSLIAKKEGKSGGPKVMIAGHLDEVGFMVTQIDDKGFIRFQTLGGWWSQVMLAQRVTIVTKKGDITGVIGSKPPHILPSEARKKPVEIKDMFIDIGATSREEAMEWGVRPGDMIVPYFEFTVLNNEKMLLAKAWDNRIGCAVAIDVLKQLKGVDHPNTVYGVGTVQEEVGLRGARTAAQFIQPDIAFAVDVGIAGDTPGVSEKEAMGKLGAGPHIVLYDATMVSHRGLREFVIEVAEELNIPHHFDAMPGVGTDAGAIHLTGIGVPSLTIAIPTRYIHSHAAILHRDDYENTVKLLVEVIKRLDADKVKQLTFDE	not soluble
MNNPVVLDSKTELNEQTAQDVRLQLRQDADVQRIYNAVDIKDQLELIELGKEPSMEISRFADQILHTMSLSKIEDSGELLKQLGKIMDRFDSKDFAEEKSGFFSRMFKKADKMIEQIFSKYQTMGREIDKVYVEITKYQDEMKKSIGTLDGLYEQNLKYYLDLEKYVVAGEMLLERLNTELVPMYEERVRNNDQLAGIELESLKNSVEILEQRIDDLEKARMVALLTAPQIRMIQRGNNKLIGKINTAFITTIPIFKNGIIQAVNAKRQKLVADSMAELDRRTNELLKKNAQNIATQSVEVARLSGSSSIKMETLEETWNIISRGMQETQQIEEQNKREREESRKRMATLTENIKKELQG	not soluble
HAAGFRRGDLVHNTLSYHFSPGGFIMDGGARACGCAVFPAGVGNTEAQIEAIKQLQPTGYTGTPSYLLTLLQKYQEQYGELPSFTKALVSGEAVTADMQQAFTDKGIAVFQAYASAELGLIAYQVAGEQGLVIGED	not soluble
MSLIILDNHFHVDPNHGLFLEAVKQFQRAGGTHLIVVYKTAHDYGFPGLKAEDFMKAMDFHIELVEKINRETQVKAYAVVGVHPAEFDYLARNKGLEFARNEVMKALEYAQKLCLEGKAVGIGEVGRPHYEVPQQIWEVSIEIMKYAMELAKDADCAVQLHTESFNEEKFRELGEYIREVGIKPYKVVKHFSPPLVNVAKEVGVFPSIIASKKNIEEAIKQGNRFLMETDYIDDKRRPGAVLGPKTVPKRTKEFLQRGIFTEEDVYKIHVENPKKVYGIEIEGHHHHHH	soluble
MHQQIIKFWFEELTPQNWFENNPELDKHIASRFASVLEQAARCELFNWRDSAQGRLAEIIVLDQFSRNVYRNTPKAFAQDPLALALAQEAIRLGHDQELAPEQLSFLYMPFMHSESRLIHVEAEKLFRASGLENNYDFELKHKAIIDQFGRYPHRNAILGRESTPEELAFLQQPGSSF	not soluble
HHHHHHHHHHMPPKGWRKDAQGNYPTTSYIKEQENITIQDLLFPKSTIVNLAREVPQQSGKKLLINKDASLALQRGATVFVNHLLLFAREIAKSQDKKSCSVDDVLSALDHIGHSALKGPVRDKLDEYQAAVEQRKKEKLDSGEVDADGDIDMGEDKENVPVEKVKEHDEIEEQGDALQDVEESSEKKQKTESQDVETRVQNLEQT	not soluble
MGSDKIHHHHHHAEVAVPDTTPKDTASAVKITYEDPRDPFEGFNRVMWDFNYLYLDRYLYRPVAHGYNDYIPLPAKMGVNNFLQNLEEPSSVVNNLLQGKWGWAANAGGRFTVNTTIGLLGVIDVADMMGMTRKQDEFNEVLGYYGVPNGPYFMAPFAGPYIVRELASDWVDGLYFPLSELTMWQSVLKWGLKSLHARASAIDQERLVDNALDPYAFVKDAYIQHMDYKVYDGNVPQKQEDDELLDQYMQELE	not soluble
MGSDKIHHHHHHMAKKKTKFMCQECGYESAKWMGKCPGCQSWNSMVEEFTEVKAKSSRSYVTSGAGIAKPQPITKVEREQEPRIDTSMKELNRVLGGGIVPGSLVLVGGDPGIGKSTLLLQLSARLADLKQRVLYISGEESVKQTKIRSDRLGVLSDHLYVLAETDMEKIEQAIGEVDPTLVIIDSIQTVYQDEITSAPGSVAQVRECTASFMRIAKTTGVAIFIVGHVTKQGAIAGPKLLEHMVDSVLYFEGERHHTYRILRAVKNRFGSTNEMGIFEMKESGLEEVANPSEIFLEDRSSGVAGSTVVASMEGTRPVLVELQALISPTSFGNPRRMATGVDHNRISLLMAVLEKRVGMLLQNQDAYVNVAGGVRLDEPAIDLGIAVSIASSFRNQHTNPHEVVIGEIGLTGEVRRVSRIDQRVNEAAKLGFKRVIIPDKNLGGWTIPSTIEVIGVSTVQDALEVTLGR	not soluble
